Data on two substances can be found in paper PMC3571961.

The target of test [1] is C-terminal domain of minor ampullate spidroin (CTDMi) from N. antipodiana (Nephila antipodiana). As to the kind of experiment: SEC; Superdex 75 PG, 120 ml, 10 mM sodium phosphate pH 6.8 without NaCl, 1 ml/min; apparent molecular weight against standards. Background: Size exclusion chromatography separates by hydrodynamic size, large species first.
Test [2] addresses Tri-domain miniature fibroin RP-LK-CTDMi of minor ampullate spidroin from N. antipodiana (Nephila antipodiana). The description is as above.

For the substance “C-terminal domain of minor ampullate spidroin (CTDMi) from N. antipodiana (domain or fragment)”, in test [1], the stoichiometry N stood at 2.

Take “Tri-domain miniature fibroin RP-LK-CTDMi of minor ampullate spidroin from N. antipodiana (domain or fragment)”: the stoichiometry N in test [2] is 2.

Broadly, the stoichiometry N is the number of molecules, sites or subunits per partner or assembly.
